T1: FcγRIIa H (FcγRIIa type H, His at position 131), extracellular domain with C-terminal His tag (human, UniProt P12318 34-217)
T1 construct: extracellular domain; also called FcgRIIa H; 2aH
T1 sequence (looked up): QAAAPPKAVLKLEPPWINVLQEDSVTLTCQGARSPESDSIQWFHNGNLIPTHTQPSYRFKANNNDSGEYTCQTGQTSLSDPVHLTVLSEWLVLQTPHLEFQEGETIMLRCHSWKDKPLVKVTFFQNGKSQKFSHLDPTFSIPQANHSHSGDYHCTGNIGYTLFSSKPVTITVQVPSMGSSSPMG

B1: GpH7-A5/GpH7-B3 variant I332_02A/GpL16-k0 (antibody, human IgG1, kappa)
heavy 1: not shown
heavy 2: not shown
light: DIVMTQSPLSLPVTPGEPASISCQASESLVHSNRNTYLHWYLQKPGQSPQLLIYKVSNRFSGVPDRFSGSGSGTDFTLKISRVEAEDVGVYYCSQNTHVPPTFGQGTKVEIERTVAAPSVFIFPPSDEQLKSGTASVVCLLNNFYPREAKVQWKVDNALQSGNSQESVTEQDSKDSTYSLSSTLTLSKADYEKHKVYACEVTHQGLSSPVTKSFNRGEC
notes: one H chain mutated; also called He Ab
B2: GpH7-A5/GpH7-B3 variant H268_09D/GpL16-k0 (antibody, human IgG1, kappa)
heavy 1: not shown
heavy 2: not shown
light: B1 light
notes: as for B1
B3: GpH7-A5/GpH7-B3 variant K334_16H/GpL16-k0 (antibody, human IgG1, kappa)
heavy 1: not shown
heavy 2: not shown
light: B1 light
notes: as for B1
B4: GpH7-A5/GpH7-B3 variant H268_13S/GpL16-k0 (antibody, human IgG1, kappa)
heavy 1: not shown
heavy 2: not shown
light: B1 light
notes: as for B1
B5: GpH7-A5/GpH7-B3 variant I332_16H/GpL16-k0 (antibody, human IgG1, kappa)
heavy 1: not shown
heavy 2: not shown
light: B1 light
notes: as for B1
B6: GpH7-A5/GpH7-B3 variant I332_19Q/GpL16-k0 (antibody, human IgG1, kappa)
heavy 1: not shown
heavy 2: not shown
light: B1 light
notes: as for B1
B7: GpH7-A5/GpH7-B3 variant K334_07[ (read as K334_07I)/GpL16-k0 (antibody, human IgG1, kappa)
heavy 1: not shown
heavy 2: not shown
light: B1 light
notes: as for B1
B8: GpH7-A5/GpH7-B3 variant H268_18N/GpL16-k0 (antibody, human IgG1, kappa)
heavy 1: not shown
heavy 2: not shown
light: B1 light
notes: as for B1
B9: GpH7-A5/GpH7-B3 variant H268_10E/GpL16-k0 (antibody, human IgG1, kappa)
heavy 1: not shown
heavy 2: not shown
light: B1 light
notes: as for B1
B10: GpH7-A5/GpH7-B3 variant I332_15Y/GpL16-k0 (antibody, human IgG1, kappa)
heavy 1: not shown
heavy 2: not shown
light: B1 light
notes: as for B1
B11: GpH7-A5/GpH7-B3 variant K326_14T/GpL16-k0 (antibody, human IgG1, kappa)
heavy 1: not shown
heavy 2: not shown
light: B1 light
notes: as for B1
B12: GpH7-A5/GpH7-B3 variant L328_06M/GpL16-k0 (antibody, human IgG1, kappa)
heavy 1: not shown
heavy 2: not shown
light: B1 light
notes: as for B1
B13: GpH7-A5/GpH7-B3 variant I332_09D/GpL16-k0 (antibody, human IgG1, kappa)
heavy 1: not shown
heavy 2: not shown
light: B1 light
notes: as for B1
B14: GpH7-A5/GpH7-B3 variant L328_02A/GpL16-k0 (antibody, human IgG1, kappa)
heavy 1: not shown
heavy 2: not shown
light: B1 light
notes: as for B1
B15: GpH7-A5/GpH7-B3 variant I332_14T/GpL16-k0 (antibody, human IgG1, kappa)
heavy 1: not shown
heavy 2: not shown
light: B1 light
notes: as for B1
B16: GpH7-A5/GpH7-B3 variant K334_08L/GpL16-k0 (antibody, human IgG1, kappa)
heavy 1: not shown
heavy 2: not shown
light: B1 light
notes: as for B1
B17: GpH7-A5/GpH7-B3 variant K334_03V/GpL16-k0 (antibody, human IgG1, kappa)
heavy 1: not shown
heavy 2: not shown
light: B1 light
notes: as for B1
B18: GpH7-A5/GpH7-B3 variant A330_12R/GpL16-k0 (antibody, human IgG1, kappa)
heavy 1: not shown
heavy 2: not shown
light: B1 light
notes: as for B1
B19: GpH7-A5/GpH7-B3 variant K334_14T/GpL16-k0 (antibody, human IgG1, kappa)
heavy 1: not shown
heavy 2: not shown
light: B1 light
notes: as for B1
B20: GpH7-A5/GpH7-B3 variant I332_13S/GpL16-k0 (antibody, human IgG1, kappa)
heavy 1: not shown
heavy 2: not shown
light: B1 light
notes: as for B1
B21: GpH7-A5/GpH7-B3 variant I332_03V/GpL16-k0 (antibody, human IgG1, kappa)
heavy 1: not shown
heavy 2: not shown
light: B1 light
notes: as for B1
B22: GpH7-A5/GpH7-B3 variant K326_06M/GpL16-k0 (antibody, human IgG1, kappa)
heavy 1: not shown
heavy 2: not shown
light: B1 light
notes: as for B1
B23: GpH7-A5/GpH7-B3 variant K326_10E/GpL16-k0 (antibody, human IgG1, kappa)
heavy 1: not shown
heavy 2: not shown
light: B1 light
notes: as for B1
B24: GpH7-A5/GpH7-B3 variant K326_09D/GpL16-k0 (antibody, human IgG1, kappa)
heavy 1: not shown
heavy 2: not shown
light: B1 light
notes: as for B1
B25: GpH7-A5/GpH7-B3 variant K326_19Q/GpL16-k0 (antibody, human IgG1, kappa)
heavy 1: not shown
heavy 2: not shown
light: B1 light
notes: as for B1
B26: GpH7-A5/GpH7-B3 variant G236_07I/GpL16-k0 (antibody, human IgG1, kappa)
heavy 1: not shown
heavy 2: not shown
light: B1 light
notes: as for B1
B27: GpH7-A5/GpH7-B3 variant G236_10E/GpL16-k0 (antibody, human IgG1, kappa)
heavy 1: not shown
heavy 2: not shown
light: B1 light
notes: as for B1
B28: GpH7-A5/GpH7-B3 variant K334_15Y/GpL16-k0 (antibody, human IgG1, kappa)
heavy 1: not shown
heavy 2: not shown
light: B1 light
notes: as for B1
B29: GpH7-A5/GpH7-B3 variant L328_13S/GpL16-k0 (antibody, human IgG1, kappa)
heavy 1: not shown
heavy 2: not shown
light: B1 light
notes: as for B1
B30: GpH7-A5/GpH7-B3 variant I332_06M/GpL16-k0 (antibody, human IgG1, kappa)
heavy 1: not shown
heavy 2: not shown
light: B1 light
notes: as for B1
B31: GpH7-A5/GpH7-B3 variant I336_08L/GpL16-k0 (antibody, human IgG1, kappa)
heavy 1: not shown
heavy 2: not shown
light: B1 light
notes: as for B1
B32: GpH7-A5/GpH7-B3 variant I332_10E/GpL16-k0 (antibody, human IgG1, kappa)
heavy 1: not shown
heavy 2: not shown
light: B1 light
notes: as for B1
B33: GpH7-A5/GpH7-B3 variant L235_20W/GpL16-k0 (antibody, human IgG1, kappa)
heavy 1: not shown
heavy 2: not shown
light: B1 light
notes: as for B1
B34: GpH7-A5/GpH7-B3 variant P271_01G/GpL16-k0 (antibody, human IgG1, kappa)
heavy 1: not shown
heavy 2: not shown
light: B1 light
notes: as for B1
B35: GpH7-A5/GpH7-B3 variant Q295_05P/GpL16-k0 (antibody, human IgG1, kappa)
heavy 1: not shown
heavy 2: not shown
light: B1 light
notes: as for B1
B36: GpH7-A5/GpH7-B3 variant I336_06M/GpL16-k0 (antibody, human IgG1, kappa)
heavy 1: not shown
heavy 2: not shown
light: B1 light
notes: as for B1
B37: GpH7-A5/GpH7-B3 variant K334_04F/GpL16-k0 (antibody, human IgG1, kappa)
heavy 1: not shown
heavy 2: not shown
light: B1 light
notes: as for B1
B38: GpH7-A5/GpH7-B3 variant G236_03V/GpL16-k0 (antibody, human IgG1, kappa)
heavy 1: not shown
heavy 2: not shown
light: B1 light
notes: as for B1
B39: GpH7-A5/GpH7-B3 variant I332_18N/GpL16-k0 (antibody, human IgG1, kappa)
heavy 1: not shown
heavy 2: not shown
light: B1 light
notes: as for B1
B40: GpH7-A5/GpH7-B3 variant L328_14T/GpL16-k0 (antibody, human IgG1, kappa)
heavy 1: not shown
heavy 2: not shown
light: B1 light
notes: as for B1
B41: GpH7-A5/GpH7-B3 variant I332_04F/GpL16-k0 (antibody, human IgG1, kappa)
heavy 1: not shown
heavy 2: not shown
light: B1 light
notes: as for B1
B42: GpH7-B3 variant T335_15Y/GpL16-k0 (antibody, human IgG1, kappa)
heavy: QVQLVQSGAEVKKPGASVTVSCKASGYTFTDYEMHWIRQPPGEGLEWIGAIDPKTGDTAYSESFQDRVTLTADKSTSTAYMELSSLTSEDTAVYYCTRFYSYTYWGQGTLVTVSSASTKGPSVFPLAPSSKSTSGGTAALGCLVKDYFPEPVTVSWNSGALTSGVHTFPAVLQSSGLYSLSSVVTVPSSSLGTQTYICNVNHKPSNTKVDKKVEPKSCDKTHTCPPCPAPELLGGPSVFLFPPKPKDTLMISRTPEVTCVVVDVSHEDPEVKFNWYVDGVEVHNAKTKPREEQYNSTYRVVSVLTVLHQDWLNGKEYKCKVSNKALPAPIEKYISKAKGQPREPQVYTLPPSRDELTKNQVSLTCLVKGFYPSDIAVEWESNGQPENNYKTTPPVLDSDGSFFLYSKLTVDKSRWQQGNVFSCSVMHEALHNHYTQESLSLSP
light: B1 light
notes: both H chains mutated; also called Ho Ab
B43: GpH7-B3 variant T335_19Q/GpL16-k0 (antibody, human IgG1, kappa)
heavy: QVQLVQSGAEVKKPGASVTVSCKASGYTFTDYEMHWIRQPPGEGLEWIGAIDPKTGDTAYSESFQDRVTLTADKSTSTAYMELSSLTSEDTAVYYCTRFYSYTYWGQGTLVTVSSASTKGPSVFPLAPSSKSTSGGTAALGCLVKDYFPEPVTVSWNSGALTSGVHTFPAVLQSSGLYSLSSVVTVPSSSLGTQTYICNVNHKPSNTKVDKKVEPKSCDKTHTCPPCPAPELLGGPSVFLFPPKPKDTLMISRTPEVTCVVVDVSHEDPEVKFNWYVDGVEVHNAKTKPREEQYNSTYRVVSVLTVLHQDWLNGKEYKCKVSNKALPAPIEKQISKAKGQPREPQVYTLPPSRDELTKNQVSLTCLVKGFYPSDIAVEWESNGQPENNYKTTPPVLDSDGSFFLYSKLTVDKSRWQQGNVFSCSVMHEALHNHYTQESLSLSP
light: B1 light
notes: as for B42
B44: GpH7-B3 variant T335_16H/GpL16-k0 (antibody, human IgG1, kappa)
heavy: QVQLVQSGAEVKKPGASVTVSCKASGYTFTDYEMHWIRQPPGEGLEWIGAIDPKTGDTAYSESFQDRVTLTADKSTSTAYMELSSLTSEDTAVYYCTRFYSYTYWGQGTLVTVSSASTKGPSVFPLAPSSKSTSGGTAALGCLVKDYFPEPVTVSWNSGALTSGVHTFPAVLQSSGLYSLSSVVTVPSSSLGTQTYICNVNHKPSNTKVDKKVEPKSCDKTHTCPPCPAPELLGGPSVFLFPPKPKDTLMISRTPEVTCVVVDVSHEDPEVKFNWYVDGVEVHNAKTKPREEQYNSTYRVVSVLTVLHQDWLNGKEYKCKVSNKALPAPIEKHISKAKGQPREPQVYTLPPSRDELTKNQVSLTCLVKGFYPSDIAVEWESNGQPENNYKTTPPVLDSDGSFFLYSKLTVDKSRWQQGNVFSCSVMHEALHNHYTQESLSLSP
light: B1 light
notes: as for B42

target: T1, FcγRIIa H (FcγRIIa type H, His at …); test: SPR Biacore, relative binding, GpH7-A5/GpH7-B3/GpL16-k0 (HeCon Ab)=100
Protocol: (§1) Analysis of interaction between objective antibody and the FcγR was carried out using Biacore T100 (GE Healthcare). HBS-EP+ (GE Healthcare) was used as the running buffer, and the measurement temperature was set to 25° C. Chips produced by immobilizing the antigen peptide by the amine coupling method to a Series S Sencor Chip CM5 (GE Healthcare), or alternatively, chips produced by allowing preliminarily biotinylated antigen peptides to interact with and immobilize onto a Series S Sensor Chip SA (certified) (GE Healthcare) were used. Antibodies of interest were captured onto an antigen peptide-immobilized chip, and allowed to interact to each FcγR diluted with running buffer. To regenerate and repeatedly use the chip, the antibodies captured on the chip were washed off by reacting 10 mM glycine-HCl, pH 1.5.

He/Con_2aH | Binder
111 % of control | B1
133 % of control | B2
104 % of control | B3
112 % of control | B4
109 % of control | B5
108 % of control | B6
110 % of control | B7
112 % of control | B8
124 % of control | B9
115 % of control | B10
114 % of control | B11
104 % of control | B12
118 % of control | B13
130 % of control | B14
115 % of control | B15
104 % of control | B16
109 % of control | B17
108 % of control | B18
103 % of control | B19
110 % of control | B20
105 % of control | B21

He/Con_2aH | Binder
103 % of control | B22
102 % of control | B23
110 % of control | B24
101 % of control | B25
115 % of control | B26
111 % of control | B27
106 % of control | B28
123 % of control | B29
110 % of control | B30
106 % of control | B31
108 % of control | B32
118 % of control | B33
107 % of control | B34
103 % of control | B35
106 % of control | B36
106 % of control | B37
119 % of control | B38
110 % of control | B39
116 % of control | B40
104 % of control | B41

target: T1, FcγRIIa H (FcγRIIa type H, His at …); test: SPR Biacore, relative binding, GpH7-B3/GpL16-k0 (HoCon Ab)=100
Protocol: as §1

Ho/Con_2aH | Binder
102 % of control | B42
103 % of control | B43
100 % of control | B44
